Data taken from paper PMC4908412, “β-arrestin-1 contributes to brown fat function and directly interacts with PPARα and PPARγ” (Scientific Reports, 2016).
One block for each binder: values may come before it.

B3: PPARα-ligand binding domain (amino acids 196–468) (domain or fragment, human, UniProt Q07869 196-468, looked up)
chain: EDSETADLKSLAKRIYEAYLKNFNMNKVKARVILSGKASNNPPFVIHDMETLCMAEKTLVAKLVANGIQNKEAEVRIFHCCQCTSVETVTELTEFAKAIPGFANLDLNDQVTLLKYGVYEAIFAMLSSVMNKDGMLVAYGNGFITREFLKSLRKPFCDIMEPKFDFAMKFNALELDDSDISLFVAAIICCGDRPGLLNVGHIEKMQEGIVHVLRLHLQSNHPDDIFLFPKLLQKMADLRQLVTEHAQLVQIIKKTESDAALHPLLQEIYRDMY
modifications: biotinylated for biolayer interferometry; 15N-labeled for NMR
notes: The His tag is used for capture in the pulldown; also called PPARα-LBD; wild-type PPARα; source: E. coli BL21 (DE3)-CodonPlus, purified; not shown: His6, N-terminal, kept
B5: PPARγ-ligand binding domain (amino acids 204–477) (domain or fragment, human, UniProt P37231-2 204-477, looked up)
chain: LNPESADLRALAKHLYDSYIKSFPLTKAKARAILTGKTTDKSPFVIYDMNSLMMGEDKIKFKHITPLQEQSKEVAIRIFQGCQFRSVEAVQEITEYAKSIPGFVNLDLNDQVTLLKYGVHEIIYTMLASLMNKDGVLISEGQGFMTREFLKSLRKPFGDFMEPKFEFAVKFNALELDDSDLAIFIAVIILSGDRPGLLNVKPIEDIQDNLLQALELQLKLNHPESSQLFAKLLQKMTDLRQIVTEHVQLLQVIKKTETDMSLHPLLQEIYKDLY
modifications: biotinylated for biolayer interferometry; 15N-labeled for NMR
notes: The His tag is used for capture in the pulldown; also called PPARγ-LBD; wild-type PPARγ; source: E. coli BL21 (DE3)-CodonPlus, purified; not shown: His6, N-terminal, kept

Experiments:
Conditions in all cases: both partners purified
[1] = molecular target: B3; assay: BLI; competition: PPARα/γ-LBD and β-arrestin-1 with or without increasing amounts of RXRα-LBD (Supplementary Fig. 5b,c)
[2] = molecular target: B5; assay: as above
[3] = molecular target: B3; assay: BLI; RXRα-LBD with PPARα/γ-LBD; the tables and the methods name PPAR-LBD as ligand and RXRα-LBD as analyte, the legend of Fig. 2e,f says 50 μg/ml RXRα-LBD loaded on SAs with serial dilutions of PPARα/γ-LBD; 25 °C; 2:1 heterogeneous ligand model and steady-state analysis
[4] = molecular target: B5; assay: as above
[5] = molecular target: B3; assay: BLI; Octet Red 96; 50 μg/ml biotinylated PPARα-LBD or PPARγ-LBD (or their mutants) immobilised on streptavidin biosensors; analyte β-arrestin-1, βarr1M or peptides in solution (single 2 μM or serial dilutions, β-arrestin-1 0.5–32 μM); 25 °C; 2:1 heterogeneous ligand model and steady-state analysis
[6] = molecular target: B5; assay: as above
[7] = molecular target: B3; assay: as above; remark: listed apart in the source
[8] = molecular target: B5; assay: as above; remark: listed apart in the source
[9] = molecular target: T1, β-arrestin-1 (recombinant rattus β-arrestin-1) (rat, UniProt P29066 1-418); assay: as above
T1 construct: β-arrestin-1, rat (rattus), recombinant; also called βarr1; wild-type β-arrestin-1
T1 sequence (P29066 whole entry): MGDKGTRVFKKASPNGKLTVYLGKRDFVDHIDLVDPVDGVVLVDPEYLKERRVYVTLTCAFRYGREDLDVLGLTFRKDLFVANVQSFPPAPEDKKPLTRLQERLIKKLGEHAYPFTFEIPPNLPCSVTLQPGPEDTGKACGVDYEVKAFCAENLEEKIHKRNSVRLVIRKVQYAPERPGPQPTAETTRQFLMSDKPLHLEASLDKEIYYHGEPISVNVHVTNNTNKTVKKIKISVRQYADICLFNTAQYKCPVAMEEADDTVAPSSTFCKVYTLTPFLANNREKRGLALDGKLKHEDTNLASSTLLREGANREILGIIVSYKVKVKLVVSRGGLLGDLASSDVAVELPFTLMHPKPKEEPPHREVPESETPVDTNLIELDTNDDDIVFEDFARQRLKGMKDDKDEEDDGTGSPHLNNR

[10] = molecular target: T2, β-arrestin-1 double mutant with L100A and L104A (rat, UniProt P29066 1-418, L100A | L104A); assay: as above
T2 construct: β-arrestin-1 with L100A and L104A; also called βarr1M; source: purified
T2 sequence (P29066 whole entry L100A/L104A): as the sequence (P29066 whole entry) above, with L100A, L104A counted along it

[11] = molecular target: T1, β-arrestin-1 (recombinant rattus …); assay: as above; remark: listed apart in the source

B1: 9-cis-retinoic acid receptor α-ligand binding domain (amino acids 196–435) (domain or fragment, human, UniProt P19793 223-462, looked up)
chain: TSSANEDMPVERILEAELAVEPKTETYVEANMGLNPSSPNDPVTNICQAADKQLFTLVEWAKRIPHFSELPLDDQVILLRAGWNELLIASFSHRSIAVKDGILLATGLHVHRNSAHSAGVGAIFDRVLTELVSKMRDMQMDKTELGCLRAIVLFNPDSKGLSNPAEVEALREKVYASLEAYCKHKYPEQPGRFAKLLLRLPALRSIGLKCLEHLFFFKLIGDTPIDTFLMEMLEAPHQMT
notes: also called RXRα-LBD; source: E. coli BL21 (DE3)-CodonPlus, purified
IC50 [1]: 880 nM
IC50 [2]: 850 nM
Kd [3]: 29 nM
Kd [4]: 71 nM

Binder: B3
Kd [9]: 3600 nM
Kd [10]: 3900 nM

Binder: B5
Kd [11]: 1400 nM

The remaining lines, values ahead:

maximum response [5]: 0.27 nm
maximum response [6]: 0.22 nm
KD1 (2:1 HL model) [7]: 42 µM
KD2 (2:1 HL model) [7]: 60.3 µM
Kd [7]: 56000 nM
koff1 (2:1 HL model) [7]: 0.000907 S^−1
koff2 (2:1 HL model) [7]: 0.161 S^−1
kon1 (2:1 HL model) [7]: 21.6 M^−1S^−1
kon2 (2:1 HL model) [7]: 2660 M^−1S^−1
KD1 (2:1 HL model) [8]: 557 µM
KD2 (2:1 HL model) [8]: 521 µM
Kd [8]: 560000 nM
koff1 (2:1 HL model) [8]: 0.00323 S^−1
koff2 (2:1 HL model) [8]: 0.132 S^−1
kon1 (2:1 HL model) [8]: 5.8 M^−1S^−1
kon2 (2:1 HL model) [8]: 2.53 M^−1S^−1
Binder: PAPEDKKPLTRLQERLIKKLG [synthetic β-arrestin-1 peptide harboring the LQERLIKKL sequence]

Kd [9]: 4100 nM
B2: PPARα-LBD D371A (domain or fragment, human, UniProt Q07869 196-468, looked up)
chain: EDSETADLKSLAKRIYEAYLKNFNMNKVKARVILSGKASNNPPFVIHDMETLCMAEKTLVAKLVANGIQNKEAEVRIFHCCQCTSVETVTELTEFAKAIPGFANLDLNDQVTLLKYGVYEAIFAMLSSVMNKDGMLVAYGNGFITREFLKSLRKPFCDIMEPKFDFAMKFNALELADSDISLFVAAIICCGDRPGLLNVGHIEKMQEGIVHVLRLHLQSNHPDDIFLFPKLLQKMADLRQLVTEHAQLVQIIKKTESDAALHPLLQEIYRDMY
notes: also called PPARα M2; source: E. coli BL21 (DE3)-CodonPlus, purified

Kd [11]: 1500 nM
B4: PPARγ-LBD D380A (domain or fragment, human, UniProt P37231-2 204-477, looked up)
chain: LNPESADLRALAKHLYDSYIKSFPLTKAKARAILTGKTTDKSPFVIYDMNSLMMGEDKIKFKHITPLQEQSKEVAIRIFQGCQFRSVEAVQEITEYAKSIPGFVNLDLNDQVTLLKYGVHEIIYTMLASLMNKDGVLISEGQGFMTREFLKSLRKPFGDFMEPKFEFAVKFNALELADSDLAIFIAVIILSGDRPGLLNVKPIEDIQDNLLQALELQLKLNHPESSQLFAKLLQKMTDLRQIVTEHVQLLQVIKKTETDMSLHPLLQEIYKDLY
notes: also called PPARγ M2; source: E. coli BL21 (DE3)-CodonPlus, purified

Kd [11]: 1900 nM
B6: PPARγ-LBD L311G/N312G (domain or fragment, human, UniProt P37231-2 204-477, looked up)
chain: LNPESADLRALAKHLYDSYIKSFPLTKAKARAILTGKTTDKSPFVIYDMNSLMMGEDKIKFKHITPLQEQSKEVAIRIFQGCQFRSVEAVQEITEYAKSIPGFVNLDGGDQVTLLKYGVHEIIYTMLASLMNKDGVLISEGQGFMTREFLKSLRKPFGDFMEPKFEFAVKFNALELDDSDLAIFIAVIILSGDRPGLLNVKPIEDIQDNLLQALELQLKLNHPESSQLFAKLLQKMTDLRQIVTEHVQLLQVIKKTETDMSLHPLLQEIYKDLY
notes: also called PPARγ M1; source: E. coli BL21 (DE3)-CodonPlus, purified
